Assay [1] has as its target hPD-L1-mFc: hPD-L1 extracellular domain (amino acids F19-T239) expressed with the Fc portion of mouse IgG2a at the C-terminus (human; mouse) (UniProt Q9NZQ7). Briefly: blocking ELISA, 0.7 nM hPD-L1-mFc on plate-coated hPD1-hFc. (In general: In an ELISA, binding on a coated surface is turned into a signal by an enzyme label.)
The target of assay [2] is human CD28 expressed with a C-terminal murine Fc tag (hCD28.mFc) (human). Briefly: SPR Biacore 25 C, hCD28.mFc captured by anti-mFc, antibody injected.
For assay [3], the target named is human PD-L1 expressed with a C-terminal myc-myc-hexahistidine tag (hPD-L1.mmH) (human). Briefly: SPR Biacore 25 C, antibody captured by anti-hFc, hPD-L1.mmH injected. (In general: In SPR one partner is held on a chip, and binding of the other changes the refractive index at the surface.)
human PD-L1 expressed with a C-terminal myc-myc-hexahistidine tag (hPD-L1.mmH) (human), sequence (chain, as listed by the source limits assumed): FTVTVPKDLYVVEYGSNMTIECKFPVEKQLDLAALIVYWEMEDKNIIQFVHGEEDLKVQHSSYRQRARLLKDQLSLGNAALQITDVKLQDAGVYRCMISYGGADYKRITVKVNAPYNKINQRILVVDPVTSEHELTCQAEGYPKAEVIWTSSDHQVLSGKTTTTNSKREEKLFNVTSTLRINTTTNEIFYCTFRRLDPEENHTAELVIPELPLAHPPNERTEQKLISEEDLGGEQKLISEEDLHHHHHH

hPD-L1-mFc: hPD-L1 extracellular domain (amino acids F19-T239) expressed with the Fc portion of mouse IgG2a at the C-terminus (human; mouse), sequence (Q9NZQ7 19-239 limits assumed): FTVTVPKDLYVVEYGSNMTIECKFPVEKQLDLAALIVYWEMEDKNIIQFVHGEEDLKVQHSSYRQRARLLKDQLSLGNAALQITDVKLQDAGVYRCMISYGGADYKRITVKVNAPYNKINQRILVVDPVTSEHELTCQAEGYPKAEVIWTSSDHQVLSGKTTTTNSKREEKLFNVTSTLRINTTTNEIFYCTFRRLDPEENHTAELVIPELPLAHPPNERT

For the substance Isotype control 1 (antibody), in assay [1], the % Blocking at 100 nM mAb is 1%.
On to Isotype Control (antibody), for which, in assay [2], the 90 nM mAb Bind (RU) was -4.3 RU. The substance also returned a 30 nM hPD-L1.mmH Bind (RU) in assay [3] of 0.5 RU.
Isotype control 3 (antibody): the % Blocking at 100 nM mAb in assay [1] was 4%.
Isotype control 2 (antibody) showed a % Blocking at 100 nM mAb in assay [1] of 1%.

The record behind these values is US20250043002A1.
